Legend:
Assay in all cases: two-hybrid library CCNG1;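 further: natural log of median RNA to DNA barcode read ratio; higher means stronger binding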
4H3041-bN = molecular target: T1, 4H3041-bN
T1 chain: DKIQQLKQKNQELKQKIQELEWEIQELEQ

4H3297-bN = molecular target: T2, 4H3297-bN
T2 chain: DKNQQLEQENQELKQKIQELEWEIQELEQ

4H932-bN = molecular target: T3, 4H932-bN
T3 chain: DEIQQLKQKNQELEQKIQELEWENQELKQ

4H2931-bN = molecular target: T4, 4H2931-bN
T4 chain: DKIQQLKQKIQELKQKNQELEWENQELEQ

4H2859-bN = molecular target: T5, 4H2859-bN
T5 chain: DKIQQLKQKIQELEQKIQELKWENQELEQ

4H2518-bN = molecular target: T6, 4H2518-bN
T6 chain: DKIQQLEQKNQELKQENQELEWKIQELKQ

4H3381-bN = molecular target: T7, 4H3381-bN
T7 chain: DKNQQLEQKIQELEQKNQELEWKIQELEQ

4H2444-bN = molecular target: T8, 4H2444-bN
T8 chain: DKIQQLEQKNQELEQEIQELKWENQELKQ

4H2143-bN = molecular target: T9, 4H2143-bN
T9 chain: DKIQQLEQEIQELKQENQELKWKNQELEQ

4H3364-bN = molecular target: T10, 4H3364-bN
T10 chain: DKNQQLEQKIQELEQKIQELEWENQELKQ

4H2760-bN = molecular target: T11, 4H2760-bN
T11 chain: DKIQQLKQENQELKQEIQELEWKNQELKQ

4H2162-bN = molecular target: T12, 4H2162-bN
T12 chain: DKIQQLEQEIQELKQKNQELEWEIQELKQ

4H2585-bN = molecular target: T13, 4H2585-bN
T13 chain: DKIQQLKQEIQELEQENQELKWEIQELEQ

4H730-bN = molecular target: T14, 4H730-bN
T14 chain: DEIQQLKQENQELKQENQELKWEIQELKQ

4H2253-bN = molecular target: T15, 4H2253-bN
T15 chain: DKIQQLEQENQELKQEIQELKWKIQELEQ

4H796-bN = molecular target: T16, 4H796-bN
T16 chain: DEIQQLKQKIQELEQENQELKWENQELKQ

4H2233-bN = molecular target: T17, 4H2233-bN
T17 chain: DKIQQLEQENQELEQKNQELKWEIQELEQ

4H264-bN = molecular target: T18, 4H264-bN
T18 chain: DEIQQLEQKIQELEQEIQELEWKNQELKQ

4H56-bN = molecular target: T19, 4H56-bN
T19 chain: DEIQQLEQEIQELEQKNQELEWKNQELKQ

4H166-bN = molecular target: T20, 4H166-bN
T20 chain: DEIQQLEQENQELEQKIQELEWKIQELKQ

4H349-bN = molecular target: T21, 4H349-bN
T21 chain: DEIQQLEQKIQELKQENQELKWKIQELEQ

4H949-bN = molecular target: T22, 4H949-bN
T22 chain: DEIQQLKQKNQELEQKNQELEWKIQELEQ

4H235-bN = molecular target: T23, 4H235-bN
T23 chain: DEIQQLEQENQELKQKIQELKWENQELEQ

4H918-bN = molecular target: T24, 4H918-bN
T24 chain: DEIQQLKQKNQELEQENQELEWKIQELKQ

4H967-bN = molecular target: T25, 4H967-bN
T25 chain: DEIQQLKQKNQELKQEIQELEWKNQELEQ

4H2576-bN = molecular target: T26, 4H2576-bN
T26 chain: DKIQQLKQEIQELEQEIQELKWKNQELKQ

4H797-bN = molecular target: T27, 4H797-bN
T27 chain: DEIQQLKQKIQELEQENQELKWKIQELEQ

4H754-bN = molecular target: T28, 4H754-bN
T28 chain: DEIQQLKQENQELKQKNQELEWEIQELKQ

4H3185-bN = molecular target: T29, 4H3185-bN
T29 chain: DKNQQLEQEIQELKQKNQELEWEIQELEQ

4H2729-bN = molecular target: T30, 4H2729-bN
T30 chain: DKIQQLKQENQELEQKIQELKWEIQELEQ

4H4001-bN = molecular target: T31, 4H4001-bN
T31 chain: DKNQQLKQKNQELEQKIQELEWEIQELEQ

4H3427-bN = molecular target: T32, 4H3427-bN
T32 chain: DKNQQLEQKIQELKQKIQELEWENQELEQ

4H331-bN = molecular target: T33, 4H331-bN
T33 chain: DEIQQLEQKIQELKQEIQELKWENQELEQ

4H883-bN = molecular target: T34, 4H883-bN
T34 chain: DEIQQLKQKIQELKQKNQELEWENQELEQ

4H1257-bN = molecular target: T35, 4H1257-bN
T35 chain: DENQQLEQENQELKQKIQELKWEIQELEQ

4H687-bN = molecular target: T36, 4H687-bN
T36 chain: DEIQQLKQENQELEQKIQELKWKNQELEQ

4H1845-bN = molecular target: T37, 4H1845-bN
T37 chain: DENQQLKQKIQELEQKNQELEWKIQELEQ

4H3782-bN = molecular target: T38, 4H3782-bN
T38 chain: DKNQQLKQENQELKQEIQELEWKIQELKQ

4H607-bN = molecular target: T39, 4H607-bN
T39 chain: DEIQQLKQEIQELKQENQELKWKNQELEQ

4H2667-bN = molecular target: T40, 4H2667-bN
T40 chain: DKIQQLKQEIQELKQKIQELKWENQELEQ

4H338-bN = molecular target: T41, 4H338-bN
T41 chain: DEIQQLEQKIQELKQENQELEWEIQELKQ

4H2618-bN = molecular target: T42, 4H2618-bN
T42 chain: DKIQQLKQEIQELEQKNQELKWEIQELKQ

P3A-bN = molecular target: T43, P3A-bN
T43 chain: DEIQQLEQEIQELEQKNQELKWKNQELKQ

4H717-bN = molecular target: T44, 4H717-bN
T44 chain: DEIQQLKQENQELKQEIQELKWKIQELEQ

4H2442-bN = molecular target: T45, 4H2442-bN
T45 chain: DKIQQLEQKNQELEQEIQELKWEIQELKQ

4H3354-bN = molecular target: T46, 4H3354-bN
T46 chain: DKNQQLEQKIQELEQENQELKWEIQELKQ

4H454-bN = molecular target: T47, 4H454-bN
T47 chain: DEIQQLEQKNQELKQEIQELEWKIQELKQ

4H1828-bN = molecular target: T48, 4H1828-bN
T48 chain: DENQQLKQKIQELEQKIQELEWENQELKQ

4H3112-bN = molecular target: T49, 4H3112-bN
T49 chain: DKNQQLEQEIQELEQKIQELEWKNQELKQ

4H908-bN = molecular target: T50, 4H908-bN
T50 chain: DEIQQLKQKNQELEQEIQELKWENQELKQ

4H953-bN = molecular target: T51, 4H953-bN
T51 chain: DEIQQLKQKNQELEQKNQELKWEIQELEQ

4H1446-bN = molecular target: T52, 4H1446-bN
T52 chain: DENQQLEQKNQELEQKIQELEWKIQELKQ

4H568-bN = molecular target: T53, 4H568-bN
T53 chain: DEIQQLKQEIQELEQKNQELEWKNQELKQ

4H72-bN = molecular target: T54, 4H72-bN
T54 chain: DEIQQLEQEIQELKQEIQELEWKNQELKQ

4H3855-bN = molecular target: T55, 4H3855-bN
T55 chain: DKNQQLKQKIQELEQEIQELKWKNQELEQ

Question: What does the source list for DEIQQLEQENQELEQKIQELEWKIQELKQ [4H166-bN]?
Answer: interaction score (4H3041-bN): 1.6; interaction score (4H3297-bN): 1.54; interaction score (4H932-bN): -0.134; interaction score (4H2931-bN): -0.274; interaction score (4H2859-bN): 0.54; interaction score (4H2518-bN): 1.34; interaction score (4H3381-bN): 0.0552; interaction score (4H2444-bN): 0.231; interaction score (4H2143-bN): 0.201; interaction score (4H3364-bN): -0.154; interaction score (4H2760-bN): 0.225; interaction score (4H2162-bN): 0.326; interaction score (4H2585-bN): -0.823; interaction score (4H730-bN): -0.71; interaction score (4H2253-bN): -0.769; interaction score (4H796-bN): -1.95; interaction score (4H2233-bN): 0.155; interaction score (4H264-bN): 0.717; interaction score (4H56-bN): -0.199; interaction score (4H166-bN): 0.12; interaction score (4H349-bN): -0.759; interaction score (4H949-bN): -0.601; interaction score (4H235-bN): -0.365

Question: With DENQQLEQENQELKQKIQELKWEIQELEQ [4H1257-bN] as the binder, how does the interaction score (4H918-bN) read?
Answer: -1.21

Question: And the interaction score (4H967-bN)?
Answer: -0.47

Question: What about the interaction score (4H2576-bN) of the same binder?
Answer: -0.613

Question: And the interaction score (4H797-bN)?
Answer: -0.946

Question: And the interaction score (4H754-bN)?
Answer: -1.46

Question: And the interaction score (4H3185-bN)?
Answer: -1.45

Question: And the interaction score (4H2729-bN)?
Answer: -0.506

Question: And the interaction score (4H4001-bN)?
Answer: -1.89

Question: And the interaction score (4H3427-bN)?
Answer: -0.768

Question: What about the interaction score (4H331-bN) of the same binder?
Answer: -1.48

Question: What about the interaction score (4H883-bN) of the same binder?
Answer: -1.31

Question: And the interaction score (4H1257-bN)?
Answer: -1.67

Question: What about the interaction score (4H687-bN) of the same binder?
Answer: -1.24

Question: What about the interaction score (4H1845-bN) of the same binder?
Answer: -0.503

Question: And the interaction score (4H3782-bN)?
Answer: 1.9

Question: What about the interaction score (4H607-bN) of the same binder?
Answer: -0.95

Question: And the interaction score (4H2667-bN)?
Answer: -1.35

Question: And the interaction score (4H338-bN)?
Answer: -0.857

Question: What about the interaction score (4H2618-bN) of the same binder?
Answer: -0.173

Question: What about the interaction score (P3A-bN) of the same binder?
Answer: -1.36

Question: What about the interaction score (4H717-bN) of the same binder?
Answer: -1.05

Question: What about the interaction score (4H2442-bN) of the same binder?
Answer: -1.13

Question: What about the interaction score (4H3354-bN) of the same binder?
Answer: -1.08

Question: What about the interaction score (4H454-bN) of the same binder?
Answer: 0.889

Question: What about the interaction score (4H1828-bN) of the same binder?
Answer: -0.561

Question: What about the interaction score (4H3112-bN) of the same binder?
Answer: -0.702

Question: What about the interaction score (4H908-bN) of the same binder?
Answer: -1.39

Question: What about the interaction score (4H953-bN) of the same binder?
Answer: -0.733

Question: What about the interaction score (4H1446-bN) of the same binder?
Answer: -0.533

Question: And the interaction score (4H568-bN)?
Answer: -1.28

Question: And the interaction score (4H72-bN)?
Answer: -1.99

Question: And the interaction score (4H3855-bN)?
Answer: -0.77

Reference: publication PMC10397247
